Paper PMC7111943

Target: T1, GST-N (TGEV nucleocapsid protein) (Transmissible gastroenteritis …, UniProt P04134 1-382)
T1 sequence: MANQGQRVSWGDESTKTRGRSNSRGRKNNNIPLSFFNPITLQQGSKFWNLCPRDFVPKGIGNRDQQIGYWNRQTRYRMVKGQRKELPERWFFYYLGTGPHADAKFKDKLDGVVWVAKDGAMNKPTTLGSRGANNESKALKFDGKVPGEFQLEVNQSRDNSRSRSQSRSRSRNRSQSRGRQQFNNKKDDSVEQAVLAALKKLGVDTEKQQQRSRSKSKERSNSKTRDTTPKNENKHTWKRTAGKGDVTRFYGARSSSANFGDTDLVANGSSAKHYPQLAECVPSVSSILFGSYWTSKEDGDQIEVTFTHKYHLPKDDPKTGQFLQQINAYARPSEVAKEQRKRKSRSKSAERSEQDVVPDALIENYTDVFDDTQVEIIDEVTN
Test: EMSA

UCGAACUAAACGAAAU (ssRNA) [TRS-L]
binding result: binds
